Earlier results on 1 substance are cited in paper PMC7962812.

pKd: −log10 of the molar value.

In this data set the target is Bax (Homo sapiens) (UniProt Q07812).
Sequence of Bax (Homo sapiens) (Q07812 whole entry): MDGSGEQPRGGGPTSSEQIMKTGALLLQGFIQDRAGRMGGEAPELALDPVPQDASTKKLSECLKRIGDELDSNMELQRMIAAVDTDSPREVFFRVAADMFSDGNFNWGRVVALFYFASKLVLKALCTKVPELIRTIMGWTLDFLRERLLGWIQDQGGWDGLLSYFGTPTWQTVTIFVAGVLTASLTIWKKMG

Sequence of Bcl-2 (P10415 whole entry): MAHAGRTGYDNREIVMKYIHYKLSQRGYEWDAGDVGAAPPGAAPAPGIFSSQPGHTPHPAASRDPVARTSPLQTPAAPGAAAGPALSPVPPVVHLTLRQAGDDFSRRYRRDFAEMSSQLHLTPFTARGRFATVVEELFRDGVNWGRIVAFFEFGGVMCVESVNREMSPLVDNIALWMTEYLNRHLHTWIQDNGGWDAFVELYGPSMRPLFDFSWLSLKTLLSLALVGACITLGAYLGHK

One may read the pKd as the Kd on a negative log10 scale, so that one unit is a factor of ten. Regarding Bcl-2 (from UniProt P10415), the pKd was 7.45.
